The text below walks through data of publication PMC6666309 (Biochemistry, 2019).

B1: pro-cathepsin D (enzyme)
chain: not shown
modifications: fluorescently labelled in the MST assay (dye and site not stated)
B2: full-length progranulin (natural protein, human, UniProt P28799 18-593, looked up)
chain: TRCPDGQFCPVACCLDPGGASYSCCRPLLDKWPTTLSRHLGGPCQVDAHCSAGHSCIFTVSGTSSCCPFPEAVACGDGHHCCPRGFHCSADGRSCFQRSGNNSVGAIQCPDSQFECPDFSTCCVMVDGSWGCCPMPQASCCEDRVHCCPHGAFCDLVHTRCITPTGTHPLAKKLPAQRTNRAVALSSSVMCPDARSRCPDGSTCCELPSGKYGCCPMPNATCCSDHLHCCPQDTVCDLIQSKCLSKENATTDLLTKLPAHTVGDVKCDMEVSCPDGYTCCRLQSGAWGCCPFTQAVCCEDHIHCCPAGFTCDTQKGTCEQGPHQVPWMEKAPAHLSLPDPQALKRDVPCDNVSSCPSSDTCCQLTSGEWGCCPIPEAVCCSDHQHCCPQGYTCVAEGQCQRGSEIVAGLEKMPARRASLSHPRDIGCDQHTSCPVGQTCCPSLGGSWACCQLPHAVCCEDRQHCCPAGYTCNVKARSCEKEVVSAQPATFLARSPHVGVKDVECGEGHFCHDNQTCCRDNRQGWACCPYRQGVCCADRRHCCPAGFRCAARGTKCLRREAPRWDAPLRDPALRQLL

The target in series [1] is B2. Description: MST.
Series [2] deals with B1. Nature of the series: cell-based or functional assay.

In turn, B1 gave a Kd in series [1] of 950 nM.

For B2, the “DSF - ΔTm of proCTSD (1 μM proCTSD with 2 μM PGRN, pH 7.4)” value in series [2] was -0.41 °C.

What is called Kd is the constant that tells how readily two partners part at equilibrium.
